These results are taken from US6943243.

The target of the assay is TraR (Agrobacterium strain A348). Kind of assay: cell-based or functional assay.

Consider TraM, for which the fold +/- (induction of GUS by C8-AHL, TraR + TraM co-transfected) was determined as 0.8 fold.

As for TraS, the fold +/- (induction of GUS by C8-AHL, TraR + TraS co-transfected) was found to be 6.6 fold.
